Experimental data as given in patent publication US20230302148A1, “PHARMACEUTICAL COMPOSITION COMPRISING LONG-ACTING CONJUGATE OF TRIPLE GLUCAGON/GLP-1/GIP RECEPTOR AGONIST” (HANMI PHARM. CO., LTD., priority 2020, published 2023).
Bridges are numbered along the chain shown (N, C = ends). Where no end group is shown, it is not given here. [ ]: non-standard residue; d: D form. The star is where a group is joined. Acetyl(2-(4-imidazolyl)) = O=C(Cc1c[nH]cn1)*; Aib = CC(C)(N)C(=O)O

T1: human GIP receptor (human, UniProt P48546 22-466)
T1 sequence (looked up): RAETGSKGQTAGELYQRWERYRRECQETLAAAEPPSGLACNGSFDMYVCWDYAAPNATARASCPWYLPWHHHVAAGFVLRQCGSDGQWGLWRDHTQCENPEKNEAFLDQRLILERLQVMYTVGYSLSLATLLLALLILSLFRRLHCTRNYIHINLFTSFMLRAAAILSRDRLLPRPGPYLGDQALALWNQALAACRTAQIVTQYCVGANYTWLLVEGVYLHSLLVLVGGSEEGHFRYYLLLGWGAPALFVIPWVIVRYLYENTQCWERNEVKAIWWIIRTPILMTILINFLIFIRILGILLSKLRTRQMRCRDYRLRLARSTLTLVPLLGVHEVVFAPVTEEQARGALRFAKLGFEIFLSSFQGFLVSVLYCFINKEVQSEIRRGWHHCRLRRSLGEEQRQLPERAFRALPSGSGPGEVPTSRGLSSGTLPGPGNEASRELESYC

B1: triple agonist of SEQ ID NO: 65 (peptide)
peptide: H[Aib]QGTFTSDYSKCLDEKRAKEFVQWLLDHHPSSGQPPPS
modifications: bridge 16-20
B2: triple agonist of SEQ ID NO: 81 (peptide)
peptide: {Acetyl(2-(4-imidazolyl))}-[Aib]QGTFTSDYSKYLDEKRQKEFVQWLLNTC
modifications: bridge 15-19
B3: triple agonist of SEQ ID NO: 85 (peptide)
peptide: {Acetyl(2-(4-imidazolyl))}-[Aib]QGTFTSDYSIAMDEIHQKDFVNWLLAQC
modifications: bridge 15-19
B4: triple agonist of SEQ ID NO: 84 (peptide)
peptide: {Acetyl(2-(4-imidazolyl))}-[Aib]EGTFTSDYSIAMDEIHQKDFVDWLLAEC
modifications: bridge 15-19
B5: triple agonist of SEQ ID NO: 75 (peptide)
peptide: Y[Aib]QGTFTSDYSKYLDEKAAKEFVQWLLDHHPSSGQPPPSC
modifications: bridge 16-20
B6: triple agonist of SEQ ID NO: 8 (peptide)
peptide: H[Aib]QGTFTSDVSKYLDGQAAQEFVAWLLKGC
B7: triple agonist of SEQ ID NO: 67 (peptide)
peptide: Y[Aib]QGTFTSDYSKYLDECAAKDFVQWLLDHHPSSGQPPPS
modifications: bridge 16-20
B8: triple agonist of SEQ ID NO: 63 (peptide)
peptide: [Acetyl(2-(4-imidazolyl))][Aib]QGTFTSDCSKYLDERAAQDFVQWLLDGGPSSGAPPPS
B9: triple agonist of SEQ ID NO: 70 (peptide)
peptide: Y[Aib]QGTFTSDYSKCLDEKRAKDFVQWLLDHHPSSGQPPPS
modifications: bridge 16-20
B10: triple agonist of SEQ ID NO: 7 (peptide)
peptide: H[Aib]QGTFTSDVSKYLDGQAAKEFVAWLLKGC
B11: triple agonist of SEQ ID NO: 68 (peptide)
peptide: Y[Aib]QGTFTSDYSKCLDEKAAKEFVQWLLDHHPSSGQPPPS
modifications: bridge 16-20
B12: triple agonist of SEQ ID NO: 61 (peptide)
peptide: [Acetyl(2-(4-imidazolyl))][Aib]QGTFTSDYSIAMDEIACKDFVNWLLNTK
modifications: bridge 16-20; not fully specified
B13: triple agonist of SEQ ID NO: 83 (peptide)
peptide: {Acetyl(2-(4-imidazolyl))}-[Aib]EGTFTSDYSIAMDEIHQKDFVNWLLAQC
modifications: bridge 15-19
B14: triple agonist of SEQ ID NO: 76 (peptide)
peptide: Y[Aib]QGTFTSDYSKYLDEKRAKDFVQWLLDHHPSSGQPPPSC
modifications: bridge 16-20
B15: triple agonist of SEQ ID NO: 79 (peptide)
peptide: H[Aib]EGTFTSDYSIAMDEIHQKDFVNWLLAQKC
modifications: bridge 16-20

These binders were tested against human GCG receptor (human, UniProt P47871 26-477) (assay: cell-based or functional assay).
Chain of human GCG receptor (P47871 26-477): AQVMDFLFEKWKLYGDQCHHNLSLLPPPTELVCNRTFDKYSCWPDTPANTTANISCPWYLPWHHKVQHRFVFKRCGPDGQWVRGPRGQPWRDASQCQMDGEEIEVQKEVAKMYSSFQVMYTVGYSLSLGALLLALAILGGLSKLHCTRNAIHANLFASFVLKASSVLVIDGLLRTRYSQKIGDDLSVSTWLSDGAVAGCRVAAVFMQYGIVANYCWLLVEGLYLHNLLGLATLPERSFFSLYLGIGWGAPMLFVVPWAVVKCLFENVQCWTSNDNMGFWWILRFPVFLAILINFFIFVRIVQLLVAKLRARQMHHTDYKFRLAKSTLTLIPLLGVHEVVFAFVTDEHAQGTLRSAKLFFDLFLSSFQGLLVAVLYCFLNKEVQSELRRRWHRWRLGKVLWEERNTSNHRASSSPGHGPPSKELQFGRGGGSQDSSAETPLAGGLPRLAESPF

Row | Binder | In vitro activity relative to native peptide (%) vs. Glucagon [%]
1 | B1 | 25.2
2 | B2 | 0.3
3 | B3 | < 0.1
4 | B4 | < 0.1
5 | B5 | 8.5
6 | B6 | 0.1
7 | B7 | 46.2
8 | B8 | < 0.1
9 | B9 | 71.3
10 | B10 | < 0.1
11 | B11 | 8.8
12 | B12 | < 0.1
13 | B13 | 1.3
14 | B14 | 47.6
15 | B15 | 4.9

These binders were tested against T1, human GIP receptor (assay: cell-based or functional assay).

Row | Binder | In vitro activity relative to native peptide (%) vs. GIP [%]
16 | B1 | 11.6
17 | B2 | < 0.1
18 | B3 | 0.3
19 | B4 | < 0.1
20 | B5 | 18
21 | B6 | < 0.1
22 | B7 | 39.8
23 | B8 | < 0.1
24 | B9 | 64.4
25 | B10 | < 0.1
26 | B11 | 107
27 | B12 | 2.8
28 | B13 | 0.4
29 | B14 | 11.7
30 | B15 | 1.4

Each binder was assayed against human GLP-1 receptor (human, UniProt P43220 24-463) (assay: cell-based or functional assay).

Row | Binder | In vitro activity relative to native peptide (%) vs. GLP-1 [%]
31 | B1 | 95.4
32 | B2 | 7.8
33 | B3 | 4.3
34 | B4 | 4.2
35 | B5 | 35.1
36 | B6 | 14.2
37 | B7 | 28.5
38 | B8 | 15.3
39 | B9 | 15.1
40 | B10 | 13.7
41 | B11 | 27.9
42 | B12 | 59.8
43 | B13 | 47.3
44 | B14 | 10.3
45 | B15 | 41.5
